Measured values taken from doi:10.1101/2020.05.28.119206 (bioRxiv, 2020).

Target: the molecule itself
Assay: cryo-EM structure

B1: elastase-digested native human uromodulin filaments (UMODe) (domain or fragment)
chain: not shown
modifications: N-glycans at N322, N396, N513
**Q.** Does B1 bind?
**A.** binds
